Results from the supplement of paper PMC10567573.

B1: DLC1 (parent)
chain: HVTHWMGQPFNSDDRNTACHHGLV

Variants of: B1
Experiment: protein stability index of a GFP-peptide fusion (GPS, HEK-293T) (PSI 1-6); higher = more stable
Settings: c terminus: a fixed tail appended
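Further: lentivirally expressed fusions sorted by FACS into six bins by GFP to DsRed ratio, PSI derived from sequencing read proportions per bin multiplied by bin number.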

First: HVTHWMGQPFNSDIRNTACHHGLV [D14I]
Second: HVTHWMGQPFNSDTRNTACHHGLV [D14T]
The protein stability index of the first is lower: 1.53 for the first, 1.99 for the second.

Going from HVTHWMGQPFNSDNRNTACHHGLV [D14N] to HVTHWMGQPFNSDVRNTACHHGLV [D14V], the protein stability index falls from 1.86 to 1.71.

First: HVTHWMGQPFNSDYRNTACHHGLV [D14Y]
Second: HVTHWMGQPFNSDFRNTACHHGLV [D14F]
The protein stability index of the first is lower: 1.44 for the first, 2.35 for the second.

Compared with HVTHWMGQPFNSDCRNTACHHGLV [D14C], HVTHWMGQPFNSDHRNTACHHGLV [D14H] is higher in protein stability index: 1.68 for the first, 2.66 for the second.

Compared with HVTHWMGQPFNSDSRNTACHHGLV [D14S], HVTHWMGQPFNSDPRNTACHHGLV [D14P] is higher in protein stability index: 1.83 for the first, 2.16 for the second.

First: HVTHWMGQPFNSDRRNTACHHGLV [D14R]
Second: HVTHWMGQPFNSDQRNTACHHGLV [D14Q]
The protein stability index of the first is lower: 2.01 for the first, 2.31 for the second.

Compared with HVTHWMGQPFNSDGRNTACHHGLV [D14G], HVTHWMGQPFNSDERNTACHHGLV [D14E] is lower in protein stability index: 1.86 for the first, 1.7 for the second.

Going from HVTHWMGQPFNSDKRNTACHHGLV [D14K] to HVTHWMGQPFNSDLRNTACHHGLV [D14L], the protein stability index falls from 1.47 to 1.31.

Going from HVTHWMGQPFNSDMRNTACHHGLV [D14M] to HVTHWMGQPFNSDARNTACHHGLV [D14A], the protein stability index rises from 1.64 to 1.9.

First: HVTHWMGQPFNSDWRNTACHHGLV [D14W]
Second: HVTHWMGQPFNSDDRNTQCHHGLV [A18Q]
The protein stability index of the first is lower: 1.65 for the first, 2.47 for the second.

First: HVTHWMGQPFNSDDRNTHCHHGLV [A18H]
Second: HVTHWMGQPFNSDDRNTWCHHGLV [A18W]
The protein stability index of the first is higher: 2.25 for the first, 1.88 for the second.

Going from HVTHWMGQPFNSDDRNTNCHHGLV [A18N] to HVTHWMGQPFNSDDRNTFCHHGLV [A18F], the protein stability index falls from 2.44 to 2.24.

First: HVTHWMGQPFNSDDRNTYCHHGLV [A18Y]
Second: HVTHWMGQPFNSDDRNTTCHHGLV [A18T]
The protein stability index of the first is higher: 2.37 for the first, 2.09 for the second.

First: HVTHWMGQPFNSDDRNTGCHHGLV [A18G]
Second: HVTHWMGQPFNSDDRNTLCHHGLV [A18L]
The protein stability index of the first is higher: 2.06 for the first, 1.56 for the second.

Going from HVTHWMGQPFNSDDRNTRCHHGLV [A18R] to HVTHWMGQPFNSDDRNTICHHGLV [A18I], the protein stability index falls from 2 to 1.76.

Compared with HVTHWMGQPFNSDDRNTSCHHGLV [A18S], HVTHWMGQPFNSDDRNTVCHHGLV [A18V] is higher in protein stability index: 2.21 for the first, 2.33 for the second.

Compared with HVTHWMGQPFNSDDRNTKCHHGLV [A18K], HVTHWMGQPFNSDDRNTDCHHGLV [A18D] is higher in protein stability index: 1.94 for the first, 2.69 for the second.

Compared with HVTHWMGQPFNSDDRNTMCHHGLV [A18M], HVTHWMGQPFNSDDRNTECHHGLV [A18E] is higher in protein stability index: 2.11 for the first, 2.53 for the second.

First: HVTHWMGQPFNSDDRNTCCHHGLV [A18C]
Second: HVTHWMGQPFNSDDRNTPCHHGLV [A18P]
The protein stability index of the first is lower: 1.83 for the first, 1.94 for the second.

First: HVTHWMGQPFCSDDRNTACHHGLV [N11C]
Second: HVTHWMGQPFLSDDRNTACHHGLV [N11L]
The protein stability index of the first is higher: 2.17 for the first, 2.14 for the second.

Compared with HVTHWMGQPFPSDDRNTACHHGLV [N11P], HVTHWMGQPFHSDDRNTACHHGLV [N11H] is lower in protein stability index: 2.3 for the first, 1.8 for the second.

First: HVTHWMGQPFVSDDRNTACHHGLV [N11V]
Second: HVTHWMGQPFKSDDRNTACHHGLV [N11K]
The protein stability index of the first is higher: 2.62 for the first, 1.86 for the second.

Going from HVTHWMGQPFQSDDRNTACHHGLV [N11Q] to HVTHWMGQPFESDDRNTACHHGLV [N11E], the protein stability index rises from 2.23 to 2.58.

First: HVTHWMGQPFTSDDRNTACHHGLV [N11T]
Second: HVTHWMGQPFISDDRNTACHHGLV [N11I]
The protein stability index of the first is higher: 2.02 for the first, 1.94 for the second.

Compared with HVTHWMGQPFFSDDRNTACHHGLV [N11F], HVTHWMGQPFYSDDRNTACHHGLV [N11Y] is higher in protein stability index: 1.65 for the first, 2.26 for the second.

First: HVTHWMGQPFGSDDRNTACHHGLV [N11G]
Second: HVTHWMGQPFMSDDRNTACHHGLV [N11M]
The protein stability index of the first is higher: 2.13 for the first, 2.07 for the second.

First: HVTHWMGQPFSSDDRNTACHHGLV [N11S]
Second: HVTHWMGQPFASDDRNTACHHGLV [N11A]
The protein stability index of the first is lower: 1.69 for the first, 2.07 for the second.

Going from HVTHWMGQPFRSDDRNTACHHGLV [N11R] to HVTHWMGQPFWSDDRNTACHHGLV [N11W], the protein stability index rises from 2.17 to 3.88.

First: HVTHWMGQPFDSDDRNTACHHGLV [N11D]
Second: HVTHWMGQPFNSDDSNTACHHGLV [R15S]
The protein stability index of the first is higher: 2.58 for the first, 2.4 for the second.

Compared with HVTHWMGQPFNSDDDNTACHHGLV [R15D], HVTHWMGQPFNSDDNNTACHHGLV [R15N] is higher in protein stability index: 2.23 for the first, 2.38 for the second.

Compared with HVTHWMGQPFNSDDINTACHHGLV [R15I], HVTHWMGQPFNSDDPNTACHHGLV [R15P] is lower in protein stability index: 1.95 for the first, 1.82 for the second.

Compared with HVTHWMGQPFNSDDKNTACHHGLV [R15K], HVTHWMGQPFNSDDYNTACHHGLV [R15Y] is lower in protein stability index: 2.11 for the first, 1.74 for the second.

Going from HVTHWMGQPFNSDDENTACHHGLV [R15E] to HVTHWMGQPFNSDDGNTACHHGLV [R15G], the protein stability index falls from 2.32 to 1.94.

Compared with HVTHWMGQPFNSDDANTACHHGLV [R15A], HVTHWMGQPFNSDDMNTACHHGLV [R15M] is lower in protein stability index: 2.22 for the first, 1.83 for the second.

Going from HVTHWMGQPFNSDDWNTACHHGLV [R15W] to HVTHWMGQPFNSDDVNTACHHGLV [R15V], the protein stability index rises from 1.73 to 2.11.

Going from HVTHWMGQPFNSDDFNTACHHGLV [R15F] to HVTHWMGQPFNSDDQNTACHHGLV [R15Q], the protein stability index falls from 2.25 to 2.01.

Compared with HVTHWMGQPFNSDDCNTACHHGLV [R15C], HVTHWMGQPFNSDDLNTACHHGLV [R15L] is higher in protein stability index: 1.99 for the first, 2.29 for the second.

First: HVTHWMGQPFNSDDTNTACHHGLV [R15T]
Second: HVTHWMGQPFNSDDHNTACHHGLV [R15H]
The protein stability index of the first is higher: 2.31 for the first, 2.06 for the second.

Compared with HVTHWMGQPFNSQDRNTACHHGLV [D13Q], HVTHWMGQPFNSYDRNTACHHGLV [D13Y] is higher in protein stability index: 1.62 for the first, 2.26 for the second.

First: HVTHWMGQPFNSHDRNTACHHGLV [D13H]
Second: HVTHWMGQPFNSNDRNTACHHGLV [D13N]
The protein stability index of the first is lower: 1.77 for the first, 2.11 for the second.

Compared with HVTHWMGQPFNSKDRNTACHHGLV [D13K], HVTHWMGQPFNSRDRNTACHHGLV [D13R] is lower in protein stability index: 2.32 for the first, 1.62 for the second.

Going from HVTHWMGQPFNSVDRNTACHHGLV [D13V] to HVTHWMGQPFNSEDRNTACHHGLV [D13E], the protein stability index rises from 1.37 to 2.07.

Going from HVTHWMGQPFNSMDRNTACHHGLV [D13M] to HVTHWMGQPFNSPDRNTACHHGLV [D13P], the protein stability index rises from 1.13 to 2.14.

Compared with HVTHWMGQPFNSGDRNTACHHGLV [D13G], HVTHWMGQPFNSTDRNTACHHGLV [D13T] is lower in protein stability index: 2 for the first, 1.94 for the second.

First: HVTHWMGQPFNSCDRNTACHHGLV [D13C]
Second: HVTHWMGQPFNSIDRNTACHHGLV [D13I]
The protein stability index of the first is lower: 1.8 for the first, 1.92 for the second.

First: HVTHWMGQPFNSWDRNTACHHGLV [D13W]
Second: HVTHWMGQPFNSSDRNTACHHGLV [D13S]
The protein stability index of the first is lower: 1.6 for the first, 1.72 for the second.

Going from HVTHWMGQPFNSLDRNTACHHGLV [D13L] to HVTHWMGQPFNSFDRNTACHHGLV [D13F], the protein stability index falls from 2.05 to 1.81.
